Test results from article PMC9482650, “Quantitative fragmentomics allow affinity mapping of interactomes” (Nature Communications, 2022).

T1: APBA2_2, Q99767
T1 sequence (Q99767 654-744, limits assumed, looked up): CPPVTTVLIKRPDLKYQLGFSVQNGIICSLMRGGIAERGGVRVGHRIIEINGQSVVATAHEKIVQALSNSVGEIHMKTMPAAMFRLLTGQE

T2: ARHGAP21, Q5T5U3
T2 sequence (Q5T5U3 45-169, limits assumed, looked up): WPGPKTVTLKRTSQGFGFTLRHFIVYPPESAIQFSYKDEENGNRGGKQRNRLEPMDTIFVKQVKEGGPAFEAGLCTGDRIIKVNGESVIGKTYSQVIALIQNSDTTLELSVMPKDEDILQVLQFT

T3: CARD11, Q9BXL7
T3 sequence (Q9BXL7 662-765, limits assumed, looked up): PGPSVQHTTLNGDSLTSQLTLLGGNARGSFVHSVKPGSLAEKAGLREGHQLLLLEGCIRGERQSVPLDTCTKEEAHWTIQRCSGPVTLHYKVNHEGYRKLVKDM

T4: DFNB31_1, Q9P202
T4 sequence (Q9P202 135-233, limits assumed, looked up): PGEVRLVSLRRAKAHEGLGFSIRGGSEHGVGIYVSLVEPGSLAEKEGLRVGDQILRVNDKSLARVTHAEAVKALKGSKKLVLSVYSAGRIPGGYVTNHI

T5: DFNB31_2, Q9P202
T5 sequence (Q9P202 274-371, limits assumed, looked up): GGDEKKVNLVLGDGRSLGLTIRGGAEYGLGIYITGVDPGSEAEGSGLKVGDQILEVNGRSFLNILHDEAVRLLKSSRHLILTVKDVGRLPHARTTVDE

T6: DFNB31_3, Q9P202
T6 sequence (Q9P202 811-907, limits assumed, looked up): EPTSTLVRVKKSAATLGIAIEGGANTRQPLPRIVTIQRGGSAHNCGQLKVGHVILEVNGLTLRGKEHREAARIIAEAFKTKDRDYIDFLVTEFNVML

T7: HTRA3, P83110
T7 sequence (P83110 354-453, limits assumed, looked up): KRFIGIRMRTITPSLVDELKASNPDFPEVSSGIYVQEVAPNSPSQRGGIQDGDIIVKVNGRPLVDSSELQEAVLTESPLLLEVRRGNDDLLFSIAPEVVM

T8: LNX2_2, Q8N448
T8 sequence (Q8N448 334-432, limits assumed, looked up): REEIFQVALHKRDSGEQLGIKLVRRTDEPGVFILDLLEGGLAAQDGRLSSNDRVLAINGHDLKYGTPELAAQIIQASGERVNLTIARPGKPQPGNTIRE

T9: MPDZ_12, O75970
T9 sequence (O75970 1857-1958, limits assumed, looked up): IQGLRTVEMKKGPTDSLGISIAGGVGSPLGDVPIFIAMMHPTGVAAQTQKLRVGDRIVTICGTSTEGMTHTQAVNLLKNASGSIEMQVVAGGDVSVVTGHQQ

T10: RAPGEF6, Q8TEU7
T10 sequence (Q8TEU7 525-625, limits assumed, looked up): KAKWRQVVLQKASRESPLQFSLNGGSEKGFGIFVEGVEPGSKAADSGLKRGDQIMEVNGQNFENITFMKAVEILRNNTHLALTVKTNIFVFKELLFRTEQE

T11: SNTB1, Q13884
T11 sequence (Q13884 107-205, limits assumed, looked up): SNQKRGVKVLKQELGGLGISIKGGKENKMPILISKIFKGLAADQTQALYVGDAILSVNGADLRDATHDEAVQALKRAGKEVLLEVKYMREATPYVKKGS

T12: SNTG1, Q9NSN8
T12 sequence (Q9NSN8 52-150, limits assumed, looked up): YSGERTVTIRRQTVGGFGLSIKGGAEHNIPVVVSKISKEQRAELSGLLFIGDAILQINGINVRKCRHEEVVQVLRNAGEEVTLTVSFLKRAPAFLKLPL

T13: TJP3_3, O95049
T13 sequence (O95049 375-456, limits assumed, looked up): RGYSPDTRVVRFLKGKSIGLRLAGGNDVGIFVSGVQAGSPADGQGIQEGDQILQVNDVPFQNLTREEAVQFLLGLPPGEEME


biological target: T1, APBA2_2, Q99767; assay: holdup assay; design: key: below the threshold = too weak to quantify, mostly under pKd 3.1 to 4; settings: plain residues with an end cap or a label only (N-terminal biotin on a linker: ado-ado)

Binder | pKd
VDSTVKVWTC [TRAF7, Q6Q0C0] | below the threshold
QHKTQLQTLI [BPIFA2, Q96DR5] | below the threshold

biological target: T2, ARHGAP21, Q5T5U3; assay: holdup assay; design: key: below the threshold = too weak to quantify, mostly under pKd 3.1 to 4; settings: plain residues with an end cap or a label only (N-terminal biotin on a linker: ado-ado)

Binder | pKd
VDSTVKVWTC [TRAF7, Q6Q0C0] | 4.36
QHKTQLQTLI [BPIFA2, Q96DR5] | 4.01

biological target: T3, CARD11, Q9BXL7; assay: holdup assay; design: key: below the threshold = too weak to quantify, mostly under pKd 3.1 to 4; settings: plain residues with an end cap or a label only (N-terminal biotin on a linker: ado-ado)

Binder | pKd
VDSTVKVWTC [TRAF7, Q6Q0C0] | below the threshold
QHKTQLQTLI [BPIFA2, Q96DR5] | below the threshold

biological target: T4, DFNB31_1, Q9P202; assay: holdup assay; design: key: below the threshold = too weak to quantify, mostly under pKd 3.1 to 4; settings: plain residues with an end cap or a label only (N-terminal biotin on a linker: ado-ado)

Binder | pKd
VDSTVKVWTC [TRAF7, Q6Q0C0] | 3.58
QHKTQLQTLI [BPIFA2, Q96DR5] | 4.38

biological target: T5, DFNB31_2, Q9P202; assay: holdup assay; design: key: below the threshold = too weak to quantify, mostly under pKd 3.1 to 4; settings: plain residues with an end cap or a label only (N-terminal biotin on a linker: ado-ado)

Binder | pKd
VDSTVKVWTC [TRAF7, Q6Q0C0] | below the threshold
QHKTQLQTLI [BPIFA2, Q96DR5] | below the threshold

biological target: T6, DFNB31_3, Q9P202; assay: holdup assay; design: key: below the threshold = too weak to quantify, mostly under pKd 3.1 to 4; settings: plain residues with an end cap or a label only (N-terminal biotin on a linker: ado-ado)

Binder | pKd
VDSTVKVWTC [TRAF7, Q6Q0C0] | below the threshold
QHKTQLQTLI [BPIFA2, Q96DR5] | 4.8

biological target: FRMPD4, Q14CM0; assay: holdup assay; design: key: below the threshold = too weak to quantify, mostly under pKd 3.1 to 4; settings: plain residues with an end cap or a label only (N-terminal biotin on a linker: ado-ado)
Sequence (Q14CM0 67-160): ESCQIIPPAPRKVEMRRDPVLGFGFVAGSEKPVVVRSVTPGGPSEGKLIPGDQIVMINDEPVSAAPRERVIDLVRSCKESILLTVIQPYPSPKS

Binder | pKd
VDSTVKVWTC [TRAF7, Q6Q0C0] | 4.02
QHKTQLQTLI [BPIFA2, Q96DR5] | below the threshold

biological target: GIPC2, Q8TF65; assay: holdup assay; design: key: below the threshold = too weak to quantify, mostly under pKd 3.1 to 4; settings: plain residues with an end cap or a label only (N-terminal biotin on a linker: ado-ado)
Sequence (Q8TF65 112-203): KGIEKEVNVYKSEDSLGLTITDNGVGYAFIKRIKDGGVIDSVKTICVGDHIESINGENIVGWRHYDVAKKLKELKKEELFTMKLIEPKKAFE

Binder | pKd
VDSTVKVWTC [TRAF7, Q6Q0C0] | below the threshold
QHKTQLQTLI [BPIFA2, Q96DR5] | 3.49

biological target: T7, HTRA3, P83110; assay: holdup assay; design: key: below the threshold = too weak to quantify, mostly under pKd 3.1 to 4; settings: plain residues with an end cap or a label only (N-terminal biotin on a linker: ado-ado)

Binder | pKd
VDSTVKVWTC [TRAF7, Q6Q0C0] | 5.13
QHKTQLQTLI [BPIFA2, Q96DR5] | below the threshold

biological target: IL16_3, Q14005; assay: holdup assay; design: key: below the threshold = too weak to quantify, mostly under pKd 3.1 to 4; settings: plain residues with an end cap or a label only (N-terminal biotin on a linker: ado-ado)
Sequence (Q14005 1107-1207): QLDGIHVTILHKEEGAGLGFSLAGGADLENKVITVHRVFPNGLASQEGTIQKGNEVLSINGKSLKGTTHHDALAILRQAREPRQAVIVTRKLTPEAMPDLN

Binder | pKd
VDSTVKVWTC [TRAF7, Q6Q0C0] | below the threshold
QHKTQLQTLI [BPIFA2, Q96DR5] | below the threshold

biological target: Inadl_10, Q8NI35; assay: holdup assay; design: key: below the threshold = too weak to quantify, mostly under pKd 3.1 to 4; settings: plain residues with an end cap or a label only (N-terminal biotin on a linker: ado-ado)
Sequence (Q8NI35 1673-1763): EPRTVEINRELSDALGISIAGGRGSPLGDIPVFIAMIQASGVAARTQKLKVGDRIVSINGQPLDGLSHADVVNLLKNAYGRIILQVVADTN

Binder | pKd
VDSTVKVWTC [TRAF7, Q6Q0C0] | below the threshold
QHKTQLQTLI [BPIFA2, Q96DR5] | below the threshold

biological target: Inadl_4, Q8NI35; assay: holdup assay; design: key: below the threshold = too weak to quantify, mostly under pKd 3.1 to 4; settings: plain residues with an end cap or a label only (N-terminal biotin on a linker: ado-ado)
Sequence (Q8NI35 547-651): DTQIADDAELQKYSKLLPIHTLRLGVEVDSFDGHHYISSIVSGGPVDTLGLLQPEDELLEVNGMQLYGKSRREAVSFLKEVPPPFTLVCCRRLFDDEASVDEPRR

Binder | pKd
VDSTVKVWTC [TRAF7, Q6Q0C0] | below the threshold
QHKTQLQTLI [BPIFA2, Q96DR5] | below the threshold

biological target: T8, LNX2_2, Q8N448; assay: holdup assay; design: key: below the threshold = too weak to quantify, mostly under pKd 3.1 to 4; settings: plain residues with an end cap or a label only (N-terminal biotin on a linker: ado-ado)

Binder | pKd
VDSTVKVWTC [TRAF7, Q6Q0C0] | 5.42
QHKTQLQTLI [BPIFA2, Q96DR5] | 4

biological target: MAGI2_6, Q86UL8; assay: holdup assay; design: key: below the threshold = too weak to quantify, mostly under pKd 3.1 to 4; settings: plain residues with an end cap or a label only (N-terminal biotin on a linker: ado-ado)
Sequence (Q86UL8 1141-1229): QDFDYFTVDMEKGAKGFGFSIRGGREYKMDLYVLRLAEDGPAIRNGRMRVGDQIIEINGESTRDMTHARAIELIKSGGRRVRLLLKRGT

Binder | pKd
VDSTVKVWTC [TRAF7, Q6Q0C0] | below the threshold
QHKTQLQTLI [BPIFA2, Q96DR5] | below the threshold

biological target: T9, MPDZ_12, O75970; assay: holdup assay; design: key: below the threshold = too weak to quantify, mostly under pKd 3.1 to 4; settings: plain residues with an end cap or a label only (N-terminal biotin on a linker: ado-ado)

Binder | pKd
VDSTVKVWTC [TRAF7, Q6Q0C0] | 3.52
QHKTQLQTLI [BPIFA2, Q96DR5] | below the threshold

biological target: NHERF4_2, Q86UT5; assay: holdup assay; design: key: below the threshold = too weak to quantify, mostly under pKd 3.1 to 4; settings: plain residues with an end cap or a label only (N-terminal biotin on a linker: ado-ado)
Sequence (Q86UT5 220-308): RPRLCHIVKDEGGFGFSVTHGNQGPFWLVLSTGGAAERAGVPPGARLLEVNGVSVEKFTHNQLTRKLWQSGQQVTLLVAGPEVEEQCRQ

Binder | pKd
VDSTVKVWTC [TRAF7, Q6Q0C0] | below the threshold
QHKTQLQTLI [BPIFA2, Q96DR5] | below the threshold

biological target: NOS1, P29475; assay: holdup assay; design: key: below the threshold = too weak to quantify, mostly under pKd 3.1 to 4; settings: plain residues with an end cap or a label only (N-terminal biotin on a linker: ado-ado)
Sequence (P29475 9-101): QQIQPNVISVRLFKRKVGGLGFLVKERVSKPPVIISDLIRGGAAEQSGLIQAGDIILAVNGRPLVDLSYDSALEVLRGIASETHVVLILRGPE

Binder | pKd
VDSTVKVWTC [TRAF7, Q6Q0C0] | below the threshold
QHKTQLQTLI [BPIFA2, Q96DR5] | 4.2

biological target: PICK1, Q9NRD5; assay: holdup assay; design: key: below the threshold = too weak to quantify, mostly under pKd 3.1 to 4; settings: plain residues with an end cap or a label only (N-terminal biotin on a linker: ado-ado)
Sequence (Q9NRD5 17-115): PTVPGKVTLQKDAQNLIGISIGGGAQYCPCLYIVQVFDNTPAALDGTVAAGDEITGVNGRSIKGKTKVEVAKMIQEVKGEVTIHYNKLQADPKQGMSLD

Binder | pKd
VDSTVKVWTC [TRAF7, Q6Q0C0] | below the threshold
QHKTQLQTLI [BPIFA2, Q96DR5] | below the threshold

biological target: PTPN3, P26045; assay: holdup assay; design: key: below the threshold = too weak to quantify, mostly under pKd 3.1 to 4; settings: plain residues with an end cap or a label only (N-terminal biotin on a linker: ado-ado)
Sequence (P26045 505-587): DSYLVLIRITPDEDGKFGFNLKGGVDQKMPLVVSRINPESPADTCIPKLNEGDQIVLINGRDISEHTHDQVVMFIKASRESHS

Binder | pKd
VDSTVKVWTC [TRAF7, Q6Q0C0] | 4.13
QHKTQLQTLI [BPIFA2, Q96DR5] | 3.99

biological target: T10, RAPGEF6, Q8TEU7; assay: holdup assay; design: key: below the threshold = too weak to quantify, mostly under pKd 3.1 to 4; settings: plain residues with an end cap or a label only (N-terminal biotin on a linker: ado-ado)

Binder | pKd
VDSTVKVWTC [TRAF7, Q6Q0C0] | 3.57
QHKTQLQTLI [BPIFA2, Q96DR5] | below the threshold

biological target: SCRIB_1, Q14160; assay: holdup assay; design: key: below the threshold = too weak to quantify, mostly under pKd 3.1 to 4; settings: plain residues with an end cap or a label only (N-terminal biotin on a linker: ado-ado)
Sequence (Q14160 718-814): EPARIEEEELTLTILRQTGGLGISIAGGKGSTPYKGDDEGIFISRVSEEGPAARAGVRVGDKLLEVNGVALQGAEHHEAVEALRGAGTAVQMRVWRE

Binder | pKd
VDSTVKVWTC [TRAF7, Q6Q0C0] | 3.66
QHKTQLQTLI [BPIFA2, Q96DR5] | 4.02

biological target: T11, SNTB1, Q13884; assay: holdup assay; design: key: below the threshold = too weak to quantify, mostly under pKd 3.1 to 4; settings: plain residues with an end cap or a label only (N-terminal biotin on a linker: ado-ado)

Binder | pKd
VDSTVKVWTC [TRAF7, Q6Q0C0] | below the threshold
QHKTQLQTLI [BPIFA2, Q96DR5] | 3.49

biological target: T12, SNTG1, Q9NSN8; assay: holdup assay; design: key: below the threshold = too weak to quantify, mostly under pKd 3.1 to 4; settings: plain residues with an end cap or a label only (N-terminal biotin on a linker: ado-ado)

Binder | pKd
VDSTVKVWTC [TRAF7, Q6Q0C0] | 3.61
QHKTQLQTLI [BPIFA2, Q96DR5] | 3.47

biological target: SNX27, Q96L92; assay: holdup assay; design: key: below the threshold = too weak to quantify, mostly under pKd 3.1 to 4; settings: plain residues with an end cap or a label only (N-terminal biotin on a linker: ado-ado)

Binder | pKd
VDSTVKVWTC [TRAF7, Q6Q0C0] | below the threshold
QHKTQLQTLI [BPIFA2, Q96DR5] | 3.83

biological target: T13, TJP3_3, O95049; assay: holdup assay; design: key: below the threshold = too weak to quantify, mostly under pKd 3.1 to 4; settings: plain residues with an end cap or a label only (N-terminal biotin on a linker: ado-ado)

Binder | pKd
VDSTVKVWTC [TRAF7, Q6Q0C0] | below the threshold
QHKTQLQTLI [BPIFA2, Q96DR5] | below the threshold
